Results as given in patent US20210015937A1 (CRESCENDO BIOLOGICS, published 2021).
Values belong to the binder of their own block, whether it stands above or below them.

Experiments:
[1] = target: T1, human PD-1 expressed on cells (human, UniProt Q15116 25-288); assay: cell-based or functional assay
[2] = target: T1, human PD-1 expressed on cells; assay: cell-based or functional assay; remark: listed apart in the source
[3] = target: T2, human LAG-3 expressed on cells (human, UniProt P18627 23-525); assay: cell-based or functional assay
T2 sequence: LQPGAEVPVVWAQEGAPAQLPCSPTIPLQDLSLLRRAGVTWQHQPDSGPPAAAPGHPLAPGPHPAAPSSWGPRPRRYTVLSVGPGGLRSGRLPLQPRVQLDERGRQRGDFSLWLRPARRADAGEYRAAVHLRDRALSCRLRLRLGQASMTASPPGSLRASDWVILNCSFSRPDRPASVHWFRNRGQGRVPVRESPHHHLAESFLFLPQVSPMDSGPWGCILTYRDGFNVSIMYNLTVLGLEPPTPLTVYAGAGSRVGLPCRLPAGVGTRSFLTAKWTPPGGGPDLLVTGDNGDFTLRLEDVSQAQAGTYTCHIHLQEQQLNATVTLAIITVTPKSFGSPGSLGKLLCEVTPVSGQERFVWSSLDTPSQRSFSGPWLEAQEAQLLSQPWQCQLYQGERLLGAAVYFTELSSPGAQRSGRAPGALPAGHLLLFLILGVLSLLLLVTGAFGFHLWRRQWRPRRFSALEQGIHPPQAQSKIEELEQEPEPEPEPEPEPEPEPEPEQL

[4] = target: T3, recombinant human LAG-3-Fc (human, UniProt P18627 23-450); assay: BLI (Octet); human LAG-3-Fc captured on protein G biosensors, 1:1 fit
T3 construct: also called human LAG-3 (R&D Systems cat no. 2319-L3); LAG3 antigen
T3 sequence: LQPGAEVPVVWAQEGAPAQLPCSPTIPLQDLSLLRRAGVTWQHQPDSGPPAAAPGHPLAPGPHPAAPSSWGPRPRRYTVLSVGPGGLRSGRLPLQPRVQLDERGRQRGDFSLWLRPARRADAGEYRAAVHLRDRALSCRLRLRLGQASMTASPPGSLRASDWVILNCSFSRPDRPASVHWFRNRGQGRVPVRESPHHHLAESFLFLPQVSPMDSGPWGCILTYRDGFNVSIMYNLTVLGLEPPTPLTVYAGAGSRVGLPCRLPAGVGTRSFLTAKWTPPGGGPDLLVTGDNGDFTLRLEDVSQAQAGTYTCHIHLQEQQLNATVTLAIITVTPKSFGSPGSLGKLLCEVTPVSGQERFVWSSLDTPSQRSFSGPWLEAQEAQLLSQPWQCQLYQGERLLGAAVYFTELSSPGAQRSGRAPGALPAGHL
Method: Binding kinetics for multi-valent and bispecific VH were also measured in real-time bio-layer interferometer based biosensor Octet (ForteBio). […] All the binding studies were performed in HBS-ET Octet kinetics buffer. Biosensors were washed in Octet kinetics buffer in between different steps. […] The contact time for each of the association steps was 150 seconds and the dissociation step was 400 seconds. […] To compare the constructs, kinetic association (kₐ) and dissociation (kd) rate constants were determined by processing and fitting the data to a 1:1 binding model using ForteBio Analysis software.

[5] = target: T4, recombinant human PD-1 Fc chimera (human, UniProt Q15116 25-167); assay: HTRF binding; His-tagged construct with PD-1-Fc, anti-human-Fc cryptate and anti-His-D2
T4 construct: Bought Fc chimera; also called human PD-1 (R&D systems cat no. 1086-PD); PD1 antigen
Method: Binding to PD-1 was measured by HTRF (homogeneous time resolved fluorescence). Serially diluted HIS-tagged constructs were prepared in assay buffer containing PBS, 0.1% BSA and 0.4M Potassium Fluoride. […] Time-resolved fluorescent emission at 620 nm and 665 nm was measured following excitation at 337 nm on the BMG PHERAstar plate reader. The HTRF ratio were calculated ((665 nm emission/620 nm emission)*10000) and the data corrected for (non-specific binding) to give the specific binding signal. EC50 were calculated from the titration curve (table 8 below).

[6] = target: T3, recombinant human LAG-3-Fc; assay: HTRF binding; His-tagged construct with LAG-3-Fc, anti-human-Fc cryptate and anti-His-D2
[7] = target: T3, recombinant human LAG-3-Fc; assay: competition ELISA; LAG-3-Fc pre-incubated with VH, binding to coated LSECtin
Text: (§1) The plate was blocked with 3% Marvel skimmed milk powder in PBS. […] Wash steps were done 3 times with PBS 0.05% Tween. Colour was developed using TMB and 0.5M sulphuric acid solution.

[8] = target: T3, recombinant human LAG-3-Fc; assay: competition ELISA; LAG-3-Fc pre-incubated with VH, binding to coated Galectin-3
Text: as §1

[9] = target: T5, LAG-3 and PD-1 on activated human T cells (human, UniProt P18627 23-525; Q15116 25-288); assay: flow cytometry (Intellicyte) on anti-CD3/anti-CD28 stimulated human CD4+ T cells; His-tagged VH detected with anti-HIS biotin and streptavidin AlexaFluor488
T5 construct: also called huCD4+ T cells; huCD8+ T cells
Method: (§2) FIG. 2. CD4+ T cells were stimulated with anti-CD3 and anti-CD28. Cells were stained with HIS tagged VH plus anti-HIS tag labelled with biotin and streptavidin AlexaFluor488. Cells were analysed using Intellicyte® cytometer.
(§3) Binding onto human activated T cells was measured by cytometry. PBMC or magnetically isolated T cells were isolated from leukocytes cones and cells were incubated in 96 well plates coated with anti-CD3 (OKT3) at 5 μg/ml. Anti-CD28 (CD28.2) was added at 1 μg/ml in RPMI media and foetal bovine serum. After 72-96 hours, cells were harvested and stained using standard flow cytometry methods. […] Fluorescently labelled anti-CD4 and anti-CD8 were included in PBMC cultures and a live/dead dye. Stained cells were analysed using the IQue cytometer (Intellicyte). EC50 were calculated from the titration curve of median fluorescence of Humabody, gating on CD4+ or CD8+ cells if using mixed cells.

[10] = target: T1, human PD-1 expressed on cells; assay: FMAT inhibition of human Fc tagged PD-L1 binding to CHO human PD-1 cells
Method: All reagents and serially diluted VH were prepared in FMAT assay buffer. […] Plates were incubated for 2 hours at room temperature then fluorescence measured in the FL2 (502 nm-537 nm) and FL5 (677-800 nm) channels on the Mirrorball plate reader (TTP) following excitation at 488 nm and 640 nm. Data was expressed as a % of the total binding control (i.e. % control) after subtraction of the background signal determined from the non-specific binding control wells.

[11] = target: T1, human PD-1 expressed on cells; assay: flow cytometry (Intellicyte) on anti-CD3/anti-CD28 stimulated human CD4+ T cells; His-tagged VH detected with anti-HIS biotin and streptavidin AlexaFluor488
Method: as §2, §3

T1 sequence (Q15116 25-288 limits assumed): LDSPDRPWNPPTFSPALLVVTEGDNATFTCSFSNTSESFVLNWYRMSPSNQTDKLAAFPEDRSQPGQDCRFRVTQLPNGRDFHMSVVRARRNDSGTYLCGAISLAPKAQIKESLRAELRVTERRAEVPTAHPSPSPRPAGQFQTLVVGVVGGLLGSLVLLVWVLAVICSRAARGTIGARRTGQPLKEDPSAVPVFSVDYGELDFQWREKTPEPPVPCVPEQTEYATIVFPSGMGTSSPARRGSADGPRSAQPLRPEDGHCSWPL
T4 sequence (Q15116 25-167 limits assumed, change not shown): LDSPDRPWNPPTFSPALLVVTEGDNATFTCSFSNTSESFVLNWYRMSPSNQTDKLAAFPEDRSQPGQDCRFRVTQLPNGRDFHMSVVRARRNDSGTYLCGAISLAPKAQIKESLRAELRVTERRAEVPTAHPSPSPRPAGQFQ
T5 sequence (Q15116 25-288 limits assumed, one chain of several): as the sequence (Q15116 25-288 limits assumed) above

potency in the PD-1:PD-L1 NFAT-luciferase reporter assay, fold lower than monoclonal antibodies [1]: > 30 fold
EC50 (M), NFAT-Luciferase Reporter Gene assay (PD-1:PD-L1) [2]: 4.2e-08 M
EC50 (M), NFAT-Luciferase Reporter Gene assay (LAG-3:MHCII) [3]: 3.3e-09 M
Kd [4]: 0.399 nM
koff [4]: 0.000305 s⁻¹
kon [4]: 764000 M⁻¹ s⁻¹
EC50 [5]: 0.59 nM
EC50 [6]: 0.51 nM
B1: VH1.1-6GS-VH1.1-6GS-VH2.63-His6 (bispecific antibody)
chain: EVQLVESGGGVVRPGGSLRLSCSASGFTFDDYGMSWVRQAPGKGLEWVSGIHWNGGNSGYADSVKGRFTISRDNAKNSLYLQMNSLRAEDTALYYCARIPREDCSSASCYTDAIDFWGPGTMVTVSSGGGGSGGGGSGGGGSGGGGSGGGGSGGGGSEVQLVESGGGVVRPGGSLRLSCSASGFTFDDYGMSWVRQAPGKGLEWVSGIHWNGGNSGYADSVKGRFTISRDNAKNSLYLQMNSLRAEDTALYYCARIPREDCSSASCYTDAIDFWGPGTMVTVSSGGGGSGGGGSGGGGSGGGGSGGGGSGGGGSEVQLVESGGGLVKPGGSLRLSCAASGFTFSDSSMTWMRQAPGKGLEWVSYISSGGGVKFYTDSVKGRFTISRDNAKNSLYLQMNSLRADDTAVYYCAREAPLRLGESPHDAFDISGQGTMVTVSSAAAHHHHHH
notes: Single-chain fusion of two anti-LAG-3 VH 1.1 and one anti-PD-1 VH 2.63; The entry includes AAA-His6; also called 1.1-6GS-1.1-6GS-2.63

potency in the PD-1:PD-L1 NFAT-luciferase reporter assay, fold lower than monoclonal antibodies [1]: > 30 fold
EC50 (M), NFAT-Luciferase Reporter Gene assay (PD-1:PD-L1) [2]: 3e-08 M
EC50 (M), NFAT-Luciferase Reporter Gene assay (LAG-3:MHCII) [3]: 3.2e-09 M
Kd [4]: 0.397 nM
koff [4]: 0.000303 s⁻¹
kon [4]: 762000 M⁻¹ s⁻¹
IC50 [7]: 54 nM
IC50 [8]: 38 nM
EC50 [5]: 0.6 nM
EC50 [6]: 0.78 nM
EC50 (read off the curve) [9]: ~2 nM
B2: VH1.1-6GS-VH1.1-9GS-VH2.63-His6 (bispecific antibody)
chain: EVQLVESGGGVVRPGGSLRLSCSASGFTFDDYGMSWVRQAPGKGLEWVSGIHWNGGNSGYADSVKGRFTISRDNAKNSLYLQMNSLRAEDTALYYCARIPREDCSSASCYTDAIDFWGPGTMVTVSSGGGGSGGGGSGGGGSGGGGSGGGGSGGGGSEVQLVESGGGVVRPGGSLRLSCSASGFTFDDYGMSWVRQAPGKGLEWVSGIHWNGGNSGYADSVKGRFTISRDNAKNSLYLQMNSLRAEDTALYYCARIPREDCSSASCYTDAIDFWGPGTMVTVSSGGGGSGGGGSGGGGSGGGGSGGGGSGGGGSGGGGSGGGGSGGGGSEVQLVESGGGLVKPGGSLRLSCAASGFTFSDSSMTWMRQAPGKGLEWVSYISSGGGVKFYTDSVKGRFTISRDNAKNSLYLQMNSLRADDTAVYYCAREAPLRLGESPHDAFDISGQGTMVTVSSAAAHHHHHH
notes: Single-chain fusion of two anti-LAG-3 VH 1.1 and one anti-PD-1 VH 2.63; The entry includes AAA-His6; also called 1.1-6GS-1.1-9GS-2.63

EC50 (M), NFAT-Luciferase Reporter Gene assay (PD-1:PD-L1) [2]: 1.2e-08 M
IC50 [10]: 4.5 nM
EC50 (read off the curve) [11]: ~2 nM
B3: VH 2.63 (VHH)
VHH: EVQLVESGGGLVKPGGSLRLSCAASGFTFSDSSMTWMRQAPGKGLEWVSYISSGGGVKFYTDSVKGRFTISRDNAKNSLYLQMNSLRADDTAVYYCAREAPLRLGESPHDAFDISGQGTMVTVSS
notes: Human VH single domain antibody against PD-1
